This series concerns MS2 coat protein. As to the kind of experiment: apparent KD of MS2 coat protein; designed switch direction (-1 OFF switch, 1 ON switch): 1; higher = weaker reporter binding. The method in brief:
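Apparent KD, taken as the median over clusters for each design, was obtained by curve-fitting normalised cluster fluorescence. Designed RNA switches had been transcribed on Illumina chips by stalled E. coli RNA polymerase and titrated with SNAP-549-labelled MS2 coat protein, doubling from 0.7 or 1.5 nM to 3 µM.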

Where [1] appears, read: Eterna round: R95, input ligand: FMN 200 uM.
The mark [2] stands for this setting: Eterna round: R95, input ligand: microRNA oligo, concentration not stated.
Setting [3] is: Eterna round: R95, input ligand: none.
Setting [4] is: input ligand: microRNA oligo, concentration not stated.

Regarding “ACGCAGCUGGGCUAGGAUAUCGGUGGUAAAACAUGAGGAUCACCCAUGUCCGAAGCUCGGACUUCCGAGAAGGAGCCCGGCUGCG [Soinraesar Omei Mod 9] (puzzle: Same State 2)”, the “apparent KD of MS2 coat protein” value was 34.1 nM under setting [1], 253 nM under setting [2] and 481 nM under setting [3].

As for “ACGCUAGUCACAGGAUAUCCGAAAUAUAGCAAAGGAGAAGGGUGAUUAACAUGAGGAUCACCCAUGUAAAAGAAGAAAGAAGAU [Edargebi] (Eterna round: R96, puzzle: Same State NG 1)”, the “apparent KD of MS2 coat protein” value (input ligand: FMN 200 uM) was found to be 173 nM, the “apparent KD of MS2 coat protein” value under setting [4] came to 167 nM and the “apparent KD of MS2 coat protein” value (input ligand: none) stood at 186 nM.

For “ACUUAGUACAAUUUAGAUCUACAUGAGGAUCACCCAUGUACUGAGGAUAUCAGCUCGAUUAGAGCUGAGAAGGCAGUAGUACUA [SSNG3/9-A2] (Eterna round: R96, puzzle: Same State NG 3)”, the “apparent KD of MS2 coat protein” value reads like this: (input ligand: FMN 200 uM) 33.3 nM; under setting [4], 35 nM; (input ligand: none) 53.9 nM.

“ACUUGCUUUUUGCUCAUUUUUUGUCCGUAACAUGAGGAUCACCCAUGUGUAGAUUAUGUGUUGUUUUUGAUACGUGA [JR_SHM208A_Sub068] (puzzle: Sensor for hsa-mir-208a)”: the “apparent KD of MS2 coat protein” value reads like this: under setting [1], 29.9 nM; under setting [2], 29.5 nM; under setting [3], 34.6 nM.

For the sequence “ACUUGCUUUUUGCUCGUAUAUUGUCCAUUACAUGAGGAUCACCCAUGUGUGUAUUGUGUAUUGUUUUUGAUACGUGC [JR_SHM208A_Sub071] (puzzle: Sensor for hsa-mir-208a)”, the “apparent KD of MS2 coat protein” value under setting [1] worked out at 243 nM, the “apparent KD of MS2 coat protein” value under setting [2] amounted to 24.4 nM and the “apparent KD of MS2 coat protein” value under setting [3] came out at 302 nM.

In the case of “ACUUGCUUUUUGCUCGUAUAUUGUCCGUUACAUGAGGAUCACCCAUGUGUGUAUUGUGUGUUGUUUUUGAUACGUGU [JR_SHM208A_Sub070] (puzzle: Sensor for hsa-mir-208a)”, the “apparent KD of MS2 coat protein” value came to 56 nM under setting [1], 62.8 nM under setting [2] and 74.2 nM under setting [3].

“AGAAAAGAAAGAAAGGAUAUACAGAAAAGAACAUGAGGAUCACCCAUGUAAGAAGAGGAGGGAGGGUAGAAGGUUCAAGAAAGAA [JR_SS2_Sub017] (puzzle: Same State 2)”: the “apparent KD of MS2 coat protein” value under setting [1] is 21 nM, the “apparent KD of MS2 coat protein” value under setting [2] is 33 nM and the “apparent KD of MS2 coat protein” value under setting [3] turned out to be 19.3 nM.

“AGAAACAAAGGCUGAAAUAAUACAUGAGGAUCACCCAUGUCACAGGAUAUCCAGAUAAUAUUCGAGGAGAAGGGUGCAGCCAAC [Esanusdiat] (Eterna round: R96, puzzle: Same State NG 3)”: the “apparent KD of MS2 coat protein” value is, setting by setting: (input ligand: FMN 200 uM) 19.1 nM; under setting [4], 59.6 nM; (input ligand: none) 79.7 nM.

Turning to “AGAAAGAAAACGCAGGAUAUGGAGCAUGAGACAUGAGGAUCACCCAUGUCAAAAGAAAAGAAGAACCAGAAGGGCGGGAAAGAAA [Default title] (puzzle: Same State 2)”, the “apparent KD of MS2 coat protein” value turned out to be 18.5 nM under setting [1], 11.7 nM under setting [2] and 15.6 nM under setting [3].

For the sequence “AGAAGACAUGAGGAUCACCCAUGUACAUAAUGAGGAGAAUGGGAGGAUAUGCAGAGAGAGAGGGAGCAGAAGGUCCAGUAUGAA [Default title] (Eterna round: R96, puzzle: Same State NG 3)”, the “apparent KD of MS2 coat protein” value reads like this: (input ligand: FMN 200 uM) 44.4 nM; under setting [4], 51.6 nM; (input ligand: none) 105 nM.

As for “AGAGGAGGAGCAGGAUAUGCGAAGAAGAACGUGGCAGAAGGGUUCAUGCGAUGACAUGAGGAUCACCCAUGUACCGCGCGAGGA [AK SSNG1-V2-10] (Eterna round: R96, puzzle: Same State NG 1)”, the “apparent KD of MS2 coat protein” value runs as follows: (input ligand: FMN 200 uM) 64.4 nM; under setting [4], 33.9 nM; (input ligand: none) 62.6 nM.
